Results reported in PMC7128310, “Negative Regulation of TLR Signaling by BCAP Requires Dimerization of Its DBB Domain” (The Journal of Immunology Author Choice, 2020).

Molecular target: the molecule itself
Assay: SEC-MALS; 50 μl at 2 mg/ml on Superdex 200 Increase 10/300 GL

B1: BCAP DBB-ANK (residues 179-404) (domain or fragment, human, UniProt Q6ZUJ8 179-404, looked up)
chain: MVVQPDRIRCGAETTVYVIVRCKLDDRVATEAEFSPEDSPSVRMEAKVENEYTISVKAPNLSSGNVSLKIYSGDLVVCETVISYYTDMEEIGNLLSNAANPVEFMCQAFKIVPYNTETLDKLLTESLKNNIPASGLHLFGINQLEEEDMMTNQRDEELPTLLHFAAKYGLKNLTALLLTCPGALQAYSVANKHGHYPNTIAEKHGFRDLRQFIDEYVETVDMLKSH
notes: B cell adaptor protein (BCAP), human, DBB and ANK domains, residues 179-404; Cloned into pMCSG7 or pMCSG9; source: E. coli BL21(DE3), purified (Ni-NTA, TEV, Superdex 200)
For B1, the “stoichiometry N” value was 2.
